Reference: IntAct's records for PubMed 14707132

Molecular target: pak1_rat Pak1 (UniProt P35465)
Sequence (P35465 whole entry): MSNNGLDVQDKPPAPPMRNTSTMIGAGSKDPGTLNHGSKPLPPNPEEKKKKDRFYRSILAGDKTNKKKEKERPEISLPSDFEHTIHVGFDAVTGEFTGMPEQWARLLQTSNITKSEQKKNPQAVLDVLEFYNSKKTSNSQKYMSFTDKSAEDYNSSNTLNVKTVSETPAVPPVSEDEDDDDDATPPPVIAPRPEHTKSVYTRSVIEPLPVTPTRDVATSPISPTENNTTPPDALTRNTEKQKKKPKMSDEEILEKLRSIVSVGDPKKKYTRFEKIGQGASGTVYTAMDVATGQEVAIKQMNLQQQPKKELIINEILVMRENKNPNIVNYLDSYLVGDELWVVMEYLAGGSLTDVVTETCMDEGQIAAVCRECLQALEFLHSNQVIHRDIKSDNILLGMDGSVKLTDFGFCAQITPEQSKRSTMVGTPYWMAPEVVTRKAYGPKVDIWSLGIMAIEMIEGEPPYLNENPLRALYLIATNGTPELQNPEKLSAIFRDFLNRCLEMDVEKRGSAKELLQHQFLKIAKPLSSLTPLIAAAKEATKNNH

Serine/threonine-protein kinase OSR1 (Homo sapiens), O95747 K46A, sequence (O95747 whole entry K46A): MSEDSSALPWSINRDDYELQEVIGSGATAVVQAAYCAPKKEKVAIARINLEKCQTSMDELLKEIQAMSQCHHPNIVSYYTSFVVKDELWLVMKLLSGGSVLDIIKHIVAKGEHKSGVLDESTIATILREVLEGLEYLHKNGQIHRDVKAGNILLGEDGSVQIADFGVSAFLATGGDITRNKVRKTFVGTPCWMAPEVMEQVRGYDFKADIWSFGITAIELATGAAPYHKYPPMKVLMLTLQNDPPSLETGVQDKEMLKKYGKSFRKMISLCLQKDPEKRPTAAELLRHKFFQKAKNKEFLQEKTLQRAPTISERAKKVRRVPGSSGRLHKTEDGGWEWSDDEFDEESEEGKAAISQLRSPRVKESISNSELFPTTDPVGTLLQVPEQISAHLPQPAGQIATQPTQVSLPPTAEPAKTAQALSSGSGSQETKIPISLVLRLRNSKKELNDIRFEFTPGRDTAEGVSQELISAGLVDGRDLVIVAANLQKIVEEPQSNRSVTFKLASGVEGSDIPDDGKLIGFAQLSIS

Substance: Serine/threonine-protein kinase OSR1 (Homo sapiens), O95747 K46A
- effect of a mutation on the interaction: decreasing interaction
